Measurements as given in PMC11784217.

B1: wild-type US28 receptor with a C-terminal natural peptide tag (US28-NP) [human cytomegalovirus (HCMV)] / LgBiT-Gα12 [not stated] (parent)
chain 1: MTPTTTTAELTTEFDYDEDATPCVFTDVLNQSKPVTLFLYGVVFLFGSIGNFLVIFTITWRRRIQCSGDVYFINLAAADLLFVCTLPLWMQYLLDHNSLASVPCTLLTACFYVAMFASLCFITEIALDRYYAIVYMRYRPVKQACLFSIFWWIFAVIIAIPHFMVVTKKDNQCMTDYDYLEVSYPIILNVELMLGAFVIPLSVISYCYYRISRIVAVSQSRHKGRIVRVLIAVVLVFIIFWLPYHLTLFVDTLKLLKWISSSCEFERSLKRALILTESLAFCHCCLNPLLYVFVGTKFRQELHCLLAEFRQRLFSRDVSWYHSMSFSRRSSPSRRETSSDTLSDEVCRVSQIIP
chain 2: MSGVVRTLSRCLLPAEAGGARERRAGSGARDAEREARRRSRDIDALLARERRAVRRLVKILLLGAGESGKSTFLKQMRIIHGREFDQKALLEFRDTIFDNILKGSRVLVDARDKLGIPWQYSENEKHGMFLMAFENKAGLPVEPATFQLYVPALSALWRDSGIREAFSRRSEFQLGESVKYFLDNLDRIGQLNYFPSKQDILLARKATKGIVEHDFVIKKIPFKMVDVGGQRSQRQKWFQCFDGITSILFMVSSSEYDQVLMEDRRTNRLVESMNIFETIVNNKLFFNVSIILFLNKMDLLVEKVKTVSIKKHFPDFRGDPHRLEDVQRYLVQCFDRKRRNRSKPLFHHFTTAIDTENVRFVFHAVKDTILQENLKDIMLQ
B2: wild-type US28 receptor with a C-terminal natural peptide tag (US28-NP) [human cytomegalovirus (HCMV)] / LgBiT-Gαq [not stated] (parent)
chain 1: B1 chain 1
chain 2: MTLESIMACCLSEEAKEARRINDEIERQLRRDKRDARRELKLLLLGTGESGKSTFIKQMRIIHGSGYSDEDKRGFTKLVYQNIFTAMQAMIRAMDTLKIPYKYEHNKAHAQLVREVDVEKVSAFENPYVDAIKSLWNDPGIQECYDRRREYQLSDSTKYYLNDLDRVADPAYLPTQQDVLRVRVPTTGIIEYPFDLQSVIFRMVDVGGQRSERRKWIHCFENVTSIMFLVALSEYDQVLVESDNENRMEESKALFRTIITYPWFQNSSVILFLNKKDLLEEKIMYSHLVDYFPEYDGPQRDAQAAREFILKMFVDLNPDSDKIIYSHFTCATDTENIRFVFAAVKDTILQLNLKEYNLV

Variants of: B1
Assay: NanoBiT nLuc complementation assay in live HEK-293 cells (Nano-Glo live cell assay), area under the curve
Details: with LgBiT-Gα12, 18 hours post-transfection media exchanged with serum-free DMEM, 6 hours later luciferase activity monitored for 60 minutes, parent: 2.2e+07, read off a plot

Variant	response (Arbitrary Units)
chain 1 S220A	1.7e+07
chain 1 R225A	1.1e+07
chain 1 D128A R129A Y130A	2.8e+06
chain 1 S218A	6.8e+06
chain 1 K223A	8.9e+06

Variants of: B2
Assay: as above
Details: with LgBiT-Gαq, 18 hours post-transfection media exchanged with serum-free DMEM, 6 hours later luciferase activity monitored for 60 minutes, parent: 2.9e+07, read off a plot

Variant	response (Arbitrary Units)
chain 1 R225A	1.6e+07
chain 1 S218A	1.8e+07
chain 1 K223A	1.7e+07
chain 1 D128A R129A Y130A	6e+06
chain 1 S220A	3e+07
